One block for each binder: values may come before it. Ends that are not written are not given here. * marks the point of attachment. Biotin = O=C1N[C@H]2[C@H](CS[C@H]2CCCCC(=O)*)N1
Tests used:
pep22 = biological target: T1, pep22; test: polypeptide dot matrix ELISA
T1 peptide: ADSYEMEEDGVRKCKKK(Biotin)

[1] = biological target: T2, human EGFRvIII-hFc protein (human, UniProt P00533 25-645); test: ELISA, coated EGFRvIII-hFc, antibody 0.1 nM
T2 construct: extracellular domain; made in HEK293 cells, purified on protein A; also called immunogen A; hFc-tagged EGFRvIII protein; not shown: human IgG Fc fragment (hFc) of the pCpC vector
Outline: (§1)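 EGFRvIII-hFc coated at 1.0 μg/mL in PBS overnight at 4° C, blocked with PBS/0.01% Tween20/1% BSA for 2 h at room temperature. Purified anti-EGFRvIII antibody bound 2 h at 37° C, then HRP-labeled secondary 2 h at 37° C. TMB developed 30 min, stopped with 1.0N HCl, A450 nm read.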

[2] = biological target: T2, human EGFRvIII-hFc protein; test: ELISA, coated EGFRvIII-hFc, antibody 0.01 nM
Outline: as §1

[3] = biological target: T3, human EGFRvIII protein on the cell surface (human, UniProt P00533 25-1210); test: FACS on CHOk1-EGFRvIII cells
T3 construct: whole, on cells; the cell line is named under assay; also called hEGFRvIII; U87MG-hEGFRvIII
Method: (§2) The desired cells are subjected to an expanded culture to 90% confluence in a T-75 cell culture flask; the medium is sucked out, and the cells are washed twice with a HBSS buffer (Hanks Balanced Salt Solution) (purchased from Invitrogen), and then treated with an enzyme-free cell dissociation solution (Versene solution: purchased from Life Technology) and collected. The cells are washed twice with the HBSS buffer and are counted, and then the cells are diluted with the HBSS buffer to 2×10⁶ cells/ml, added with 1% goat serum blocking solution, with the percentage being the mass percentage, and incubated on ice for 30 minutes, and then centrifugally washed twice with the HBSS buffer. The collected cells are suspended to 2×10⁶ cells/mL with an FACS buffer (HBSS+1% BSA, with the percentage being the mass percentage), added to a 96-well FACS reaction plate at 100 μL/well, then added with 100 μL/well of the purified EGFRvIII antibody (samples to be tested) obtained in example 2, and incubated on ice for 2 hours. The plate is centrifugally washed twice with the FACS buffer, added with 100 μL/well of a fluorescence (Alexa 488) labeled secondary antibody (purchased from Invitrogen), and then incubated on ice for 1 hour. The plate is centrifugally washed 3 times with the FACS buffer, added with 100 μL/well of a fixing solution [4% (v/v) paraformaldehyde] for suspending the cells, and centrifugally washed twice with the FACS buffer after 10 minutes. The cells are suspended in 100 μL of the FACS buffer, and the results are detected and analyzed by FACS (FACS Calibur, purchased from BD). Data analysis is performed by using the software (CellQuest) to obtain the mean fluorescence intensity (MFI) of the cells. Data is further analyzed by using the software (GraphPad Prism5) to perform data fitting and calculate EC50. […] A431 cells (human epidermal cell cancer cell lines) have a large amount of wild-type EGFR protein expressed on the surface thereof.

[4] = biological target: T3, human EGFRvIII protein on the cell …; test: FACS on U87MG-hEGFRvIII cells
[5] = biological target: T4, human wild-type EGFR protein on the cell surface (human, UniProt P00533 25-1210); test: FACS on CHOk1-EGFR cells; CHOk1-EGFR cells (recombinant EGFR expression)
T4 construct: whole, on cells; Endogenous on A431, HEB, U87MG cells and normal human primary hepatocytes; transfected on CHOk1-EGFR cells; The cell is named under assay; also called A431; HEB
Method: The cells are washed twice with the HBSS buffer and are counted, and then the cells are diluted with the HBSS buffer to 2×10⁶ cells/ml, added with 1% goat serum blocking solution, with the percentage being the mass percentage, and incubated on ice for 30 minutes, and then centrifugally washed twice with the HBSS buffer. The collected cells are suspended to 2×10⁶ cells/mL with an FACS buffer (HBSS+1% BSA, with the percentage being the mass percentage), added to a 96-well FACS reaction plate at 100 μL/well, then added with 100 μL/well of the purified EGFRvIII antibody (samples to be tested) obtained in example 2, and incubated on ice for 2 hours. The plate is centrifugally washed twice with the FACS buffer, added with 100 μL/well of a fluorescence (Alexa 488) labeled secondary antibody (purchased from Invitrogen), and then incubated on ice for 1 hour. […] The cells are suspended in 100 μL of the FACS buffer, and the results are detected and analyzed by FACS (FACS Calibur, purchased from BD). Data analysis is performed by using the software (CellQuest) to obtain the mean fluorescence intensity (MFI) of the cells. Data is further analyzed by using the software (GraphPad Prism5) to perform data fitting and calculate EC50. […]

[6] = biological target: T4, human wild-type EGFR protein on the …; test: FACS on A431 cells; A431 cells (large amount of wild-type EGFR on the surface)
Method: as §2, with “The” for “The desired cells are subjected to an expanded culture to 90% confluence in a T-75 cell culture flask; the medium is sucked out, and the cells are washed twice with a HBSS buffer (Hanks Balanced Salt Solution) (purchased from Invitrogen), and then treated with an enzyme-free cell dissociation solution (Versene solution: purchased from Life Technology) and collected. The”, “thereof. […] U87MG cells (human glioma cell lines) have a small amount of wild-type EGFR protein expressed on the surface thereof, while HEB cells (human glioma cell lines) have a high level of wild-type EGFR protein expression on the surface thereof.” for “thereof.”

binding result (pep22): no binding | OD450 nm [1]: 0.07 | OD450 nm [2]: 0.06
B1: Murine anti-75G7 (antibody, V domains shown)
VH: EVQLQQSGPELVKPGASVKIPCKASGYTFTDYNMDWVKQSHGKSLEWIGDINPNNGDTIYNQKFKGKATLTVDKSSSTAYMELRSLTSEDTAVYYCARGDYDGYYPVYYAMDYWGQGTSVTVSS
VL: ENVLTQSPAIMSASPGEKVTMTCRASSSVSSSYLHWYQQKSGASPKLWIFSTSNLAAGVPARFSGSGSGTSYSLTVSSVEAEDAATYYCQQYSGYPLTFGAGTKLELK
notes: murine hybridoma antibody; also called 75G7C6

EC50 [3]: 10.5 nM | Maximum mean fluorescence intensity [3]: 112000 MFI | EC50 [4]: 6.1 nM | EC50 [5]: 14.2 nM | EC50 [6]: 13.4 nM
B2: Chimeric antibody 75G7 (antibody, human IgG1, V domains shown)
VH: B1 VH
VL: B1 VL
notes: also called c75G7C6; chimeric antibody c75G7C6

— patent US20210032351A1 (XDCEXPLORER SHANGHAI, published 2021)
